Results on one molecule are retold here after patent US20190382483A1 (OSE IMMUNOTHERAPEUTICS, published 2019).

Test [1] deals with T1, Recombinant hSIRPg-His (Sino Biologicals, reference 11828-H08H) (human, UniProt Q9P1W8 29-360).
T1 construct: Bought recombinant protein; also called human SIRPg recombinant protein; not shown: histidine tail
The test can be described thus: Blitz, hSIRPg-His on Ni-NTA biosensor. How it is done: This method was performed with a Blitz (Forté Bio; USA; reference C22-2 No 61010-1). Recombinant hSIRPg-His (Sino Biologicals, Beijing, China; reference 11828-H08H) was immobilized at 10 μg/ml by histidine tail into a Ni-NTA biosensor (Forte Bio; USA; reference 18-0029) for 30 seconds. Then, an antibody was associated at 20 μg/mL for 120 seconds. The dissociation of antibody was made in kinetics buffer for 120 seconds. Analysis of data was made with the Blitz pro 1.2 software, which calculated association constant (ka) and dissociation constant (kd) and determined the affinity constant KD […].

Test [2] addresses T2, SIRPa variant 1 on human monocytes (homozygote v1/v1) (human, UniProt P78324 31-504).
T2 construct: the target on the cells is SIRPa v1; also called human monocytes v1/v1; SIRPa v1
The test can be described thus: flow cytometry on human monocytes (SIRPa v1/v1). How it is done: FIG. 7. Binding analysis of antibodies on human monocytes (homozygote for SIRPa variant 1 (v1/v1)). […] Revelation was performed with a PE labeled mouse anti-human Fc mAb on CantoII cytometer, values corresponding to percentage of stained monocytes.
In general terms: Flow cytometry measures light scatter and fluorescence of single cells or particles in a stream.

T1 sequence (Q9P1W8 29-360): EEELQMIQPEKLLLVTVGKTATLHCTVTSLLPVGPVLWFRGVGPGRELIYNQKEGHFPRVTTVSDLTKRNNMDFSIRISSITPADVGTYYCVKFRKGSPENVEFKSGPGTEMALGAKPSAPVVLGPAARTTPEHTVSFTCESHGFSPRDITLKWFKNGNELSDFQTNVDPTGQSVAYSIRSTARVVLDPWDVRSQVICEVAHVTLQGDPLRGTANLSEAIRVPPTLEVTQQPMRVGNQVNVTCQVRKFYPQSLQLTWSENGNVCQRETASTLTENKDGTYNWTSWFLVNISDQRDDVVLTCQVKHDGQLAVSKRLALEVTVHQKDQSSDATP
T2 sequence (P78324 31-504 limits assumed, change not shown): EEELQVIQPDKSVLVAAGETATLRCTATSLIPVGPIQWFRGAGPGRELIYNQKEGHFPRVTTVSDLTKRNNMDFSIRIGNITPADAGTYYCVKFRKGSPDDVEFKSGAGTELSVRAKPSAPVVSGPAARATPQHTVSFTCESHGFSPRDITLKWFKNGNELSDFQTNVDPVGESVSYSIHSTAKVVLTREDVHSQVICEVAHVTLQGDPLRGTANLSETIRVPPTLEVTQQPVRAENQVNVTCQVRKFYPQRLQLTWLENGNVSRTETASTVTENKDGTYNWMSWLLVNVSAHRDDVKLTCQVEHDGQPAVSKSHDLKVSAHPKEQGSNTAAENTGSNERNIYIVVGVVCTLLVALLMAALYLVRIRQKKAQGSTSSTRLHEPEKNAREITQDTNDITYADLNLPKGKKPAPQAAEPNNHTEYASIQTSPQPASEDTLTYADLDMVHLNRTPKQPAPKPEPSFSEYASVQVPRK

B1: Kwar23 (antibody, V domains shown)
VH: EVQLQQSGAELVKPGASVKLSCTASGFNIKDYYIHWVQQRTEQGLEWIGRIDPEDGETKYAPKFQDKATITADTSSNTAYLHLSSLTSEDTAVYYCARWGAYWGQGTLVTVSS
VL: QIVLTQSPAIMSASPGEKVTLTCSASSSVSSSYLYWYQQKPGSSPKLWIYSTSNLASGVPARFSGSGSGTSYSLTISSMEAEDAASYFCHQWSSYPRTFGAGTKLELK
notes: Commercial antibody (Creative Biolabs, Cat. No TAB-453CT); also called TAB-453CT (Creative Biolabs)
Take B1: the binding result in test [1] and in test [2] was “binds” each time.
